# Source: IntAct's records for PubMed 20723757
# B1: Monopolin complex subunit CSM1 (Saccharomyces cerevisiae), P25651 (parent)
# chain: MDPLTVYKNSVKQQIDSADLLVANLVNENFVLSEKLDTKATEIKQLQKQIDSLNAQVKELKTQTSQQAENSEVIKDLYEYLCNVRVHKSYEDDSGLWFDISQGTHSGGSSDDYSIMDYKLGFVKGQAQVTEVIYAPVLKQRSTEELYSLQSKLPEYLFETLSFPLSSLNQFYNKIAKSLNKKREKKDETE
# partner: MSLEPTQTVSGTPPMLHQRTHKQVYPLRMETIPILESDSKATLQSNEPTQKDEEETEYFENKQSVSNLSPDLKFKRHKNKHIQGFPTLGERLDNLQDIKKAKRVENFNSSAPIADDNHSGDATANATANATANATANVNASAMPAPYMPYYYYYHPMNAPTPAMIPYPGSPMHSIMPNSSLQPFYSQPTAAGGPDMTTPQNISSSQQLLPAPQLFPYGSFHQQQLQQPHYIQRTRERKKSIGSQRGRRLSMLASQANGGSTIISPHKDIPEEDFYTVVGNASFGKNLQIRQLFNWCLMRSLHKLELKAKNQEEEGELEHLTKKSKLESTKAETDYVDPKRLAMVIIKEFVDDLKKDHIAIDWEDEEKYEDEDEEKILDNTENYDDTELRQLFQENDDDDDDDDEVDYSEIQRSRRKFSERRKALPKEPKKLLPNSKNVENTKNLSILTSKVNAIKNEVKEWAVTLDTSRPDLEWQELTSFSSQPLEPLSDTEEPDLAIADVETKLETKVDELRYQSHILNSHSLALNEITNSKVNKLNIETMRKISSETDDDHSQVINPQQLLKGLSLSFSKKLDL
# B2: Monopolin complex subunit CSM1 (Saccharomyces cerevisiae), P25651 (parent)
# chain: B1 chain
# B3: Monopolin complex subunit pcs1 (Schizosaccharomyces pombe (strain ATCC 38366 / 972)), O13684 (parent)
# chain: MRKNNMQTSKDSELKEQAKGKSSKLIHKLPKQRTRISQGQMHSTQDFVNNEDQDAYSVRENENELHINNSGMSELNKKLQLPNVELSTLSHTQEQEFNELNKLIRKINELQEFYLLEDLAKPVTNAGADADDTIVKDLKKELENEKKANHSLKNELLKTREQIKNYSKINILIKELFGLEVADCIEDEDGYRFNCKNTGRRGTLEYQLLLDDQNFTFTPRLNVQTDEELMKHLPDYLLEEIIFTKEQGKLFSARLMKALQD
# partner: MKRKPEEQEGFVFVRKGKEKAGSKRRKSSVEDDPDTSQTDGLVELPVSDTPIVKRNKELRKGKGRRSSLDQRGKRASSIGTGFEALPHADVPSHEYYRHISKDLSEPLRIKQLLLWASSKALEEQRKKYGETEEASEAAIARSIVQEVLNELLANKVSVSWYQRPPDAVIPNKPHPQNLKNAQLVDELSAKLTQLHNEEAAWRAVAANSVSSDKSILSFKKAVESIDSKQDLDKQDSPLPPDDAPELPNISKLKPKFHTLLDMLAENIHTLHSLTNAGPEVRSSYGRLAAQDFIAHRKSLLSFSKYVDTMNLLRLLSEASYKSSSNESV
# Variants of: B1
# Details: with dsn1_yeast DSN1, P40568
row,Variant,effect of a mutation on the interaction
1,MDPLTVYKNSVKQQIDSADLLVANLVNENFVLSEKLDTKATEIKQLQKQIDSLNAQVKELKTQTSQQAENSEVIKDLYEYLCNVRVHKSYEDDSGLWFDISQGTHSGGSSDDYSIMDYKLGFVKGQAQVTEVIYAPVLKQRSTEELYSLQSKLPEELFETLSFPLSSLNQFYNKIAKSLNKKREKKDETE,decreasing interaction
2,MDPLTVYKNSVKQQIDSADLLVANLVNENFVLSEKLDTKATEIKQLQKQIDSLNAQVKELKTQTSQQAENSEVIKDLYEYLCNVRVHKSYEDDSGLWFDISQGTHSGGSSDDYSIMDYKLGFVKGQAQVTEVIYAPVLKQRSTEELYSLQSKLPEYLFETDSFPLSSLNQFYNKIAKSLNKKREKKDETE,decreasing interaction
3,MDPLTVYKNSVKQQIDSADLLVANLVNENFVLSEKLDTKATEIKQLQKQIDSLNAQVKELKTQTSQQAENSEVIKDLYEYLCNVRVHKSYEDDSGLWFDISQGTHSGGSSDDYSIMDYKLGFVKGQAQVTEVIYAPVLKQRSTEELYSLQSKLPEYLFETKSFPLSSLNQFYNKIAKSLNKKREKKDETE,decreasing interaction

# Variants of: B2
# Details: with cenpc_yeast MIF2, P35201
# Chain of cenpc_yeast MIF2, P35201 (P35201 whole entry): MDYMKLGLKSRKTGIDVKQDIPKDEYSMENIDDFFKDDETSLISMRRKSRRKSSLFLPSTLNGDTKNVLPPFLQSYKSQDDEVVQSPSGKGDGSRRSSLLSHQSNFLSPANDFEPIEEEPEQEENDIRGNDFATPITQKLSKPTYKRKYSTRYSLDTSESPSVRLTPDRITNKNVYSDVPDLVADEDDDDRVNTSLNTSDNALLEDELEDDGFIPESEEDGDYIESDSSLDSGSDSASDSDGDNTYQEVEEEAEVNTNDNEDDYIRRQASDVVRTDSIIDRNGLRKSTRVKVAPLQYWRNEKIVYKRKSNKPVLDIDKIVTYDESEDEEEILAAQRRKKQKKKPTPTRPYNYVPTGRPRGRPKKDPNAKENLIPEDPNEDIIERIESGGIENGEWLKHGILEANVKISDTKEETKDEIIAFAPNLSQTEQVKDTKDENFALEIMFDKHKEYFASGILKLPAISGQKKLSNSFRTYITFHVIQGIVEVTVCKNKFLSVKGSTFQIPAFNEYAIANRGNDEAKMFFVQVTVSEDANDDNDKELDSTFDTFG
row,Variant,effect of a mutation on the interaction
1,MDPLTVYKNSVKQQIDSADLLVANLVNENFVLSEKLDTKATEIKQLQKQIDSLNAQVKELKTQTSQQAENSEVIKDLYEYLCNVRVHKSYEDDSGLWFDISQGTHSGGSSDDYSIMDYKLGFVKGQAQVTEVIYAPVLKQRSTEELYSLQSKLPEELFETLSFPLSSLNQFYNKIAKSLNKKREKKDETE,decreasing interaction
2,MDPLTVYKNSVKQQIDSADLLVANLVNENFVLSEKLDTKATEIKQLQKQIDSLNAQVKELKTQTSQQAENSEVIKDLYEYLCNVRVHKSYEDDSGLWFDISQGTHSGGSSDDYSIMDYKLGFVKGQAQVTEVIYAPVLKQRSTEELYSLQSKLPEYLFETDSFPLSSLNQFYNKIAKSLNKKREKKDETE,decreasing interaction
3,MDPLTVYKNSVKQQIDSADLLVANLVNENFVLSEKLDTKATEIKQLQKQIDSLNAQVKELKTQTSQQAENSEVIKDLYEYLCNVRVHKSYEDDSGLWFDISQGTHSGGSSDDYSIMDYKLGFVKGQAQVTEVIYAPVLKQRSTEELYSLQSKLPEYLFETKSFPLSSLNQFYNKIAKSLNKKREKKDETE,decreasing interaction

# Variants of: B3
# Details: with mis13_schpo mis13, Q9UUB5
row,Variant,effect of a mutation on the interaction
1,MRKNNMQTSKDSELKEQAKGKSSKLIHKLPKQRTRISQGQMHSTQDFVNNEDQDAYSVRENENELHINNSGMSELNKKLQLPNVELSTLSHTQEQEFNELNKLIRKINELQEFYLLEDLAKPVTNAGADADDTIVKDLKKELENEKKANHSLKNELLKTREQIKNYSKINILIKELFGLEVADCIEDEDGYRFNCKNTGRRGTLEYQLLLDDQNFTFTPRLNVQTDEELMKHLPDALLEEIIFTKEQGKLFSARLMKALQD [Y236A],decreasing interaction
2,MRKNNMQTSKDSELKEQAKGKSSKLIHKLPKQRTRISQGQMHSTQDFVNNEDQDAYSVRENENELHINNSGMSELNKKLQLPNVELSTLSHTQEQEFNELNKLIRKINELQEFYLLEDLAKPVTNAGADADDTIVKDLKKELENEKKANHSLKNELLKTREQIKNYSKINILIKELFGLEVADCIEDEDGYRFNCKNTGRRGTLEYQLLLDDQNFTFTPRLNVQTDEELMKHLPDKLLEEIIFTKEQGKLFSARLMKALQD [Y236K],decreasing interaction
3,MRKNNMQTSKDSELKEQAKGKSSKLIHKLPKQRTRISQGQMHSTQDFVNNEDQDAYSVRENENELHINNSGMSELNKKLQLPNVELSTLSHTQEQEFNELNKLIRKINELQEFYLLEDLAKPVTNAGADADDTIVKDLKKELENEKKANHSLKNELLKTREQIKNYSKINILIKELFGLEVADCIEDEDGYRFNCKNTGRRGTLEYQLLLDDQNFTFTPRLNVQTDEELMKHLPDYLLEEKIFTKEQGKLFSARLMKALQD [I241K],decreasing interaction
